Data as given in patent publication US20230002480A1.

Columns and labels:
Assay in all cases: cell-based or functional assay
[1] = molecular target: HIV-1 Env of pseudovirus 0260.v5.c36 (HIV-1)
[2] = molecular target: HIV-1 Env of pseudovirus 1012_11_TC21_3257 (HIV-1)
[3] = molecular target: HIV-1 Env of pseudovirus 1054_07_TC4_1499 (HIV-1)
[4] = molecular target: HIV-1 Env of pseudovirus 191955_A11 (HIV-1)
[5] = molecular target: HIV-1 Env of pseudovirus 235-47 (HIV-1)
[6] = molecular target: HIV-1 Env of pseudovirus 263-8 (HIV-1)
[7] = molecular target: HIV-1 Env of pseudovirus 6244_13_B5_4576 (HIV-1)
[8] = molecular target: HIV-1 Env of pseudovirus 6480.v4.c25 (HIV-1)
[9] = molecular target: HIV-1 Env of pseudovirus 6545.v4.c1 (HIV-1)
[10] = molecular target: HIV-1 Env of pseudovirus 928-28 (HIV-1)
[11] = molecular target: HIV-1 Env of pseudovirus A07412M1.vrc12 (HIV-1)
[12] = molecular target: HIV-1 Env of pseudovirus AC10.0.29 (HIV-1)
[13] = molecular target: HIV-1 Env of pseudovirus C2101.c01 (HIV-1)
[14] = molecular target: HIV-1 Env of pseudovirus CNE21 (HIV-1)
[15] = molecular target: HIV-1 Env of pseudovirus Ce1172_H1 (HIV-1)
[16] = molecular target: HIV-1 Env of pseudovirus Ce1176_A3 (HIV-1)
[17] = molecular target: HIV-1 Env of pseudovirus HIV-001428-2.42 (HIV-1)
[18] = molecular target: HIV-1 Env of pseudovirus Q769.d22 (HIV-1)
[19] = molecular target: HIV-1 Env of pseudovirus QH0692.42 (HIV-1)
[20] = molecular target: HIV-1 Env of pseudovirus T257-31 (HIV-1)
[21] = molecular target: HIV-1 Env of pseudovirus TRJO4551.58 (HIV-1)

B1: N49P23 (antibody, V domains shown)
VH: QVRLVQSGAGARKTGASMKLSCSTSGYTFTTHHGHFINWVRQARGQGLEWMGWMNPMTGQMNIEGKFQGRVTLTRDIYSDTAYMEMTRLTTGDTGTYYCARGDFGQNYPFHYWGQGSLVIVSS
VL: LSALTQPASVSGSPGQSVTISCSGTNRYLVSWYQQHPDKAPKLIIYDDNKRPSGISDRFSASRPDDTASLTISGLQTGDEATYWCASYERFGGGTRLTVLS
[1]
  IC50: 0.261 µg/mL
  IC80: 0.919 µg/mL
  MPI: 100
[2]
  IC50: 0.013 µg/mL
  IC80: 0.085 µg/mL
  MPI: 100
[3]
  IC50: 0.272 µg/mL
  IC80: 1.21 µg/mL
  MPI: 100
[4]
  IC50: > 50 µg/mL
  IC80: > 50 µg/mL
  MPI: 31
[5]
  IC50: 0.085 µg/mL
  IC80: 0.749 µg/mL
  MPI: 90
[6]
  IC50: 0.012 µg/mL
  IC80: 0.096 µg/mL
  MPI: 100
[7]
  IC50: 0.151 µg/mL
  IC80: 0.57 µg/mL
  MPI: 100
[8]
  IC50: > 50 µg/mL
  IC80: > 50 µg/mL
  MPI: 29
[9]
  IC50: > 50 µg/mL
  IC80: > 50 µg/mL
  MPI: 10
[10]
  IC50: 0.021 µg/mL
  IC80: 0.122 µg/mL
  MPI: 100
[11]
  IC50: 0.114 µg/mL
  IC80: 0.83 µg/mL
  MPI: 97
[12]
  IC50: > 50 µg/mL
  IC80: > 50 µg/mL
  MPI: 0
[13]
  IC50: 0.056 µg/mL
  IC80: 0.362 µg/mL
  MPI: 100
[14]
  IC50: > 50 µg/mL
  IC80: > 50 µg/mL
  MPI: 0
[15]
  IC50: > 50 µg/mL
  IC80: > 50 µg/mL
  MPI: 0
[16]
  IC50: 0.297 µg/mL
  IC80: 1.38 µg/mL
  MPI: 100
[17]
  IC50: 0.036 µg/mL
  IC80: 0.241 µg/mL
  MPI: 98
[18]
  IC50: 0.005 µg/mL
  IC80: 0.025 µg/mL
  MPI: 100
[19]
  IC50: 0.557 µg/mL
  IC80: 2.51 µg/mL
  MPI: 100
[20]
  IC50: 0.178 µg/mL
  IC80: 1.17 µg/mL
  MPI: 100
[21]
  IC50: 0.016 µg/mL
  IC80: 0.068 µg/mL
  MPI: 100

B2: N49P22 (antibody, V domains shown)
V domain 1: HIQLLQSGPQVKKSGDTVRISCETSGYNFVDSRIHWVRQTPEKRLRWMGWINPLQGGVNYAPEFQGRIRMTRDTFIDTVYVDLSGLTPADTAYYYCARGIDGKSYPFHFWGHGTRVTVFS
V domain 2: RFALTQPASVSGSPGQTITITCAGGSVSWFHFPPGKTPRLIIYESSKRPSGVSPRFSGSQSGSTASLIISGLQSDDEGTYFCSILEFFGRGTLVTVLS
[1]
  IC50: 1.67 µg/mL
  IC80: 14.4 µg/mL
  MPI: 93
[2]
  IC50: 15.7 µg/mL
  IC80: > 50 µg/mL
  MPI: 53
[3]
  IC50: 0.654 µg/mL
  IC80: 2.89 µg/mL
  MPI: 100
[4]
  IC50: > 50 µg/mL
  IC80: > 50 µg/mL
  MPI: 9
[5]
  IC50: 0.037 µg/mL
  IC80: 0.373 µg/mL
  MPI: 99
[6]
  IC50: 1.83 µg/mL
  IC80: 18.5 µg/mL
  MPI: 89
[7]
  IC50: 0.565 µg/mL
  IC80: 2.48 µg/mL
  MPI: 97
[8]
  IC50: 0.809 µg/mL
  IC80: 32.1 µg/mL
  MPI: 86
[9]
  IC50: > 50 µg/mL
  IC80: > 50 µg/mL
  MPI: 17
[10]
  IC50: > 50 µg/mL
  IC80: > 50 µg/mL
  MPI: 32
[11]
  IC50: 9.6 µg/mL
  IC80: > 50 µg/mL
  MPI: 63
[12]
  IC50: > 50 µg/mL
  IC80: > 50 µg/mL
  MPI: 0
[13]
  IC50: 0.171 µg/mL
  IC80: 1.06 µg/mL
  MPI: 99
[14]
  IC50: > 50 µg/mL
  IC80: > 50 µg/mL
  MPI: 0
[15]
  IC50: > 50 µg/mL
  IC80: > 50 µg/mL
  MPI: 0
[16]
  IC50: > 50 µg/mL
  IC80: > 50 µg/mL
  MPI: 23
[17]
  IC50: 0.73 µg/mL
  IC80: 7.1 µg/mL
  MPI: 91
[18]
  IC50: 0.043 µg/mL
  IC80: 0.259 µg/mL
  MPI: 100
[19]
  IC50: 0.592 µg/mL
  IC80: 2.02 µg/mL
  MPI: 100
[20]
  IC50: > 50 µg/mL
  IC80: > 50 µg/mL
  MPI: 43
[21]
  IC50: > 50 µg/mL
  IC80: > 50 µg/mL
  MPI: 28
